The values below come from the supplement of paper PMC7877785.

This data set is described as follows: self-splicing fitness, log relative to wild type (ln ratio); higher = more splicing; Tetrahymena group I intron in knt gene, E. coli kanamycin selection, DiMSum; sequences stand for … in CUCUCU…GGAGGGAAAAGUUAUCAGGCAUGCACCUGGUAGCUAGUCUUUAAACCAAUAGAUUGCAUCGGUUUAAAAGGCAAGACCGUCAAAUUGCGGGAAAGGGGUCAACAGCCGUUCAGUACCAAGUCUCAGGGGAAACUUUGAGAUGGCCUUGCAAAGGGUAUGGUAAUAAGCUGACGGACAUGGUCCUAACCACGCAGCCAAGUCCUAAGUCAACAGAUCUUCUGUUGAUAUGGAUGCAGUUCACAGACUAAAUGUCGGUCGGGGAAGAUGUAUUCUUCUCAUAAGAUAUAGUCGGACCUCUCCUUAAUGGGAGCUAGCGGAUGAAGUGAUGCAACACUGGAGCCGCUGGGAACUAAUUUGUAUGCGAAAGUAUAUUGAUUAGUUUUGGAGUACUCGUGGUCG
The method in brief: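 The eight P1ex-region nucleotides of an intron in the knt kanamycin-resistance gene on pET-22b(+) were all randomised and the library put into E. coli BL21(DE3). Six replicate transformations were grown overnight at 37°C or 30°C on LB agar with or without 25 μg/mL kanamycin, together with 100 μg/mL carbenicillin, 50 μM IPTG and 0.2% rhamnose. Colonies were pooled and amplicon-sequenced on an Illumina HiSeq 2500. Fitness from DiMSum is the error-weighted combination of wild-type-normalised replicate fold changes, kanamycin over none.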

± gives the uncertainty stated by the source.

Regarding CACAAGCAAUAUUACGCGAG, the “self-splicing fitness (ln)” value is, setting by setting: (30 °C) -1.89 ± 0.092; (37 °C) -0.699 ± 0.091.

Regarding CACAAGCAAUAUUACGCGCA, the “self-splicing fitness (ln)” value was -0.607 ± 0.095 (30 °C) and -1.28 ± 0.1 (37 °C).

CACAAGCAAUAUUACGCGGA: the “self-splicing fitness (ln)” value (30 °C) is -3.17 ± 0.13 and the “self-splicing fitness (ln)” value (37 °C) was -1.08 ± 0.084.

Take CACAAGCAAUAUUACGCGUC: the “self-splicing fitness (ln)” value (30 °C) is -2.54 ± 0.13 and the “self-splicing fitness (ln)” value (37 °C) was -2.15 ± 0.18.

Take CACAAGCAAUAUUACGCUAC: the “self-splicing fitness (ln)” value reads like this: (30 °C) -3.18 ± 0.19; (37 °C) -2.26 ± 0.18.

In the case of CACAAGCAAUAUUACGGAGU, the “self-splicing fitness (ln)” value is, setting by setting: (30 °C) -3.2 ± 0.13; (37 °C) -2.64 ± 0.15.

Regarding CACAAGCAAUAUUACGGCGU, the “self-splicing fitness (ln)” value reads like this: (30 °C) -1.66 ± 0.088; (37 °C) -1.57 ± 0.099.

For CACAAGCAAUAUUACGGGAU, the “self-splicing fitness (ln)” value is -3.51 ± 0.14 (30 °C) and -1.41 ± 0.097 (37 °C).

Turning to CACAAGCAAUAUUACGGGCC, the “self-splicing fitness (ln)” value was -3.78 ± 0.33 (30 °C) and -2.01 ± 0.29 (37 °C).

For the sequence CACAAGCAAUAUUACGGGUC, the “self-splicing fitness (ln)” value by setting is: (30 °C) -3.43 ± 0.1; (37 °C) -2.2 ± 0.12.

As to CACAAGCAAUAUUACGGUUC, the “self-splicing fitness (ln)” value is -4.1 ± 0.22 (30 °C) and -2.66 ± 0.19 (37 °C).

For CACAAGCAAUAUUACGUCAA, the “self-splicing fitness (ln)” value by setting is: (30 °C) -3.14 ± 0.17; (37 °C) -2.6 ± 0.2.

For CACAAGCAAUAUUACGUCGC, the “self-splicing fitness (ln)” value reads like this: (30 °C) -3.09 ± 0.11; (37 °C) -2.41 ± 0.17.

In the case of CACAAGCAAUAUUACGUCGU, the “self-splicing fitness (ln)” value runs as follows: (30 °C) -3.56 ± 0.13; (37 °C) -1.96 ± 0.11.

Take CACAAGCAAUAUUACGUCUC: the “self-splicing fitness (ln)” value reads like this: (30 °C) -3.1 ± 0.25; (37 °C) -2.5 ± 0.22.

As to CACAAGCAAUAUUACGUGAU, the “self-splicing fitness (ln)” value is -4.03 ± 0.15 (30 °C) and -2.5 ± 0.15 (37 °C).

CACAAGCAAUAUUACGUUAG: the “self-splicing fitness (ln)” value reads like this: (30 °C) -1.37 ± 0.052; (37 °C) -0.63 ± 0.062.

For CACAAGCAAUAUUACGUUGA, the “self-splicing fitness (ln)” value (30 °C) is -3.84 ± 0.2 and the “self-splicing fitness (ln)” value (37 °C) is -1.64 ± 0.1.

On to CACCAGCAAUAUUACGACAU, for which the “self-splicing fitness (ln)” value (30 °C) was -3.726 ± 0.018 and the “self-splicing fitness (ln)” value (37 °C) is -2.66 ± 0.035.

Turning to CACCAGCAAUAUUACGAGAA, the “self-splicing fitness (ln)” value reads like this: (30 °C) -3.55 ± 0.43; (37 °C) -2.33 ± 0.28.

For CACCAGCAAUAUUACGAGGC, the “self-splicing fitness (ln)” value (30 °C) is -2.98 ± 0.17 and the “self-splicing fitness (ln)” value (37 °C) is -2.46 ± 0.19.

Regarding CACCAGCAAUAUUACGAUGA, the “self-splicing fitness (ln)” value (30 °C) was -1.9 ± 0.091 and the “self-splicing fitness (ln)” value (37 °C) is -2 ± 0.099.

With CACCAGCAAUAUUACGAUUA, the “self-splicing fitness (ln)” value is, setting by setting: (30 °C) -2.82 ± 0.14; (37 °C) -1.26 ± 0.11.

On to CACCAGCAAUAUUACGCAGC, for which the “self-splicing fitness (ln)” value by setting is: (30 °C) -3.44 ± 0.16; (37 °C) -1.77 ± 0.12.

With CACCAGCAAUAUUACGCCGU, the “self-splicing fitness (ln)” value by setting is: (30 °C) -2.65 ± 0.13; (37 °C) -2.55 ± 0.18.

Take CACCAGCAAUAUUACGCUAU: the “self-splicing fitness (ln)” value is -4.03 ± 0.16 (30 °C) and -2.21 ± 0.13 (37 °C).

CACCAGCAAUAUUACGCUUC: the “self-splicing fitness (ln)” value (30 °C) is -4.12 ± 0.34 and the “self-splicing fitness (ln)” value (37 °C) is -1.45 ± 0.13.

Turning to CACCAGCAAUAUUACGGAAG, the “self-splicing fitness (ln)” value was -0.975 ± 0.049 (30 °C) and -0.0423 ± 0.072 (37 °C).

Regarding CACCAGCAAUAUUACGGGAU, the “self-splicing fitness (ln)” value reads like this: (30 °C) -3.34 ± 0.076; (37 °C) -1.9 ± 0.076.

CACCAGCAAUAUUACGGGCC: the “self-splicing fitness (ln)” value by setting is: (30 °C) -3.9 ± 0.19; (37 °C) -1.73 ± 0.14.

For the sequence CACCAGCAAUAUUACGGGGU, the “self-splicing fitness (ln)” value by setting is: (30 °C) -4.29 ± 0.2; (37 °C) -3.49 ± 0.29.

With CACCAGCAAUAUUACGGUAC, the “self-splicing fitness (ln)” value was -3.11 ± 0.11 (30 °C) and -2.13 ± 0.1 (37 °C).

For CACCAGCAAUAUUACGGUGG, the “self-splicing fitness (ln)” value by setting is: (30 °C) -2.71 ± 0.077; (37 °C) -1.59 ± 0.084.

With CACCAGCAAUAUUACGUGGU, the “self-splicing fitness (ln)” value by setting is: (30 °C) -3.65 ± 0.1; (37 °C) -3.16 ± 0.14.

Consider CACCAGCAAUAUUACGUGUU, for which the “self-splicing fitness (ln)” value by setting is: (30 °C) -4.11 ± 0.14; (37 °C) -2.67 ± 0.1.

On to CACCAGCAAUAUUACGUUCC, for which the “self-splicing fitness (ln)” value (30 °C) was -4.91 ± 0.41 and the “self-splicing fitness (ln)” value (37 °C) was -2.45 ± 0.26.

For the sequence CACGAGCAAUAUUACGAAUC, the “self-splicing fitness (ln)” value was -3.87 ± 0.35 (30 °C) and -2.93 ± 0.25 (37 °C).
